Results from patent publication US20200353003A1.

Molecular target: BDCA2 antigen (CLEC4C, CD303) expressed on transduced RS4-11 and A95-KK reporter cells (UniProt Q8WTT0)
Test: cell-based or functional assay

Sequence of UniProt Q8WTT0 (Q8WTT0 whole entry): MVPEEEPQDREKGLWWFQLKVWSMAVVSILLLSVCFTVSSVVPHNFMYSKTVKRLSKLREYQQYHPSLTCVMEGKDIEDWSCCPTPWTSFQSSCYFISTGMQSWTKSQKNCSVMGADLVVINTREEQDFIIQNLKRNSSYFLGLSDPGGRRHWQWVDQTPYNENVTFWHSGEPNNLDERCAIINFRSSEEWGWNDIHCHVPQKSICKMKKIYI

B1: BDCA2 CAR (chimeric antigen receptor specific for BDCA2, with aBDCA2-scFV as binder) (protein, part only; not given: hinge, transmembrane and signaling domains, not shown: another chain or arm of the molecule; a dimerising Fc or GST)
scFv: DIQMTQSPSSVSASVGDRVTITCRASQEISGYLSWYQQKPGKAIKRLIYAASTLDSGVPSRFSGSRSGTDFTLTISSLQSEDFATYYCLQYASYPPTFGGGTKLEIKGGGGSGGGGSGGGGSQVTLKESGPTLVKPTQTLTLTCTFSGFSLSTSGMGVGWIRQPPGKALEWLAHIWWEDDKYYNPSLKSRLTITKDTSKNQVVLTMTNMDPVDTATYYCTRNWDYYTMDYWGQGTTVTVSS
**Q.** With B1 as the binder, how does the killing of target cells expressing BDCA2 (reporter-BDCA2 and RS4-11-BDCA2) by NK and T cells expressing BDCA2-CAR, flow cytometry based cytotoxic assay, E:T=1:1 read?
**A.** > 70%
